Values quoted from earlier work as cited in paper PMC4854875.

Biological target: UBE2T (Homo sapiens) (UniProt Q9NPD8)
Sequence of UniProt Q9NPD8 (Q9NPD8 whole entry): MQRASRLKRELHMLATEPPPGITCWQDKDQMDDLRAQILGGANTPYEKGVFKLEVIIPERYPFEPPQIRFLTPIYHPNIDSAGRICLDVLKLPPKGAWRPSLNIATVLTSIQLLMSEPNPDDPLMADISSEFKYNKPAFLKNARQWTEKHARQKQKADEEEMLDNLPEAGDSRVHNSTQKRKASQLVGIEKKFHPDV

In the case of FANCL (from UniProt Q9NW38), the Kd is listed as 454 nM.
